Tests used:
[1] = biological target: civet SARS CoV 007/2004 spike protein ectodomain (civet SARS CoV 007/2004 | bacteriophage T4); assay: cryo-EM structure
[2] = biological target: civet SARS CoV SZ3/2003 spike protein ectodomain (civet SARS CoV SZ3/2003 | bacteriophage T4); assay: cryo-EM structure

civet SARS CoV 007/2004 spike protein ectodomain (domain or fragment)
stoichiometry N [1]: 3

civet SARS CoV SZ3/2003 spike protein ectodomain (domain or fragment)
stoichiometry N [2]: 3
